In the RNAGym collection of RNA variant scans (doi:10.7554/elife.80360):

B1: CPEB3 Ribozyme (parent)
chain: GGGGGCCACAGCAGAAGCGUUCACGUCGCGGCCCCUGUCAGAUUCUGGUGAAUCUGCGAAUUCUGCUGU

Variants of: B1
Experiment: self-cleavage, relative activity (ratio to wild type); higher = more cleavage; co-transcriptional

Variant | self-cleavage
G3C A42C | 0.0214
G2U U55A | 0.0595
G3A G68C | 0.764
G3A G68U | 0.86
G3A G68A | 0.852
G3A A42U | 0.394
G3A A42C | 0.338
G3A A42G | 0.584
G3A U20A | 0.0708
G3A U26G | 0.29
G3A U26A | 0.187
G3A A23C | 0.525
G3A A23G | 0.401
G2U U46A | 0.0474
G2U U46C | 0.0853
G3A U53G | 0.284
G3A U53C | 0.416
G3A G28C | 0.0675
G3A G28A | 0.113
G3A G28U | 0.104
G3A G30C | 0.103
G3A G30A | 0.181
G2U U62G | 0.0547
G3A U46G | 0.688

Variant | self-cleavage
G3C A8C | 0.0756
G3C A8U | 0.123
G3C A8G | 0.0364
G3A C7U | 0.298
G3A U44G | 0.331
G3A U44A | 0.54
G3A U44C | 0.474
G3A U62C | 0.357
G3A U62G | 0.392
G3A U62A | 0.312
G3A C29G | 0.122
G3A C29U | 0.145
G3A C29A | 0.149
G3A G50A | 0.645
G2U U67G | 0.116
G2U U67A | 0.127
G2U U67C | 0.107
G3A G47C | 0.658
G3A G47U | 0.682
G3A C39U | 0.273
G3A C39A | 0.328
G3A C18U | 0.349
G3A A13U | 0.339
G3A A13G | 0.596

Variant | self-cleavage
G3C A23G | 0.0477
G3C A23C | 0.0635
G3A A16U | 0.185
G3A A16C | 0.0704
G2U U69G | 0.109
G3A G11U | 0.402
G3A G11A | 0.48
G3A G11C | 0.33
G3A C54U | 0.602
G3A C54G | 0.25
G3A C54A | 0.243
G3A C45U | 0.634
G3A G19A | 0.105
G3A G19C | 0.0671
G3A G19U | 0.092
G3C A13C | 0.0417
G3C A13U | 0.0542
G3A G25U | 0.054
G2U U43A | 0.118
G2U U43C | 0.0688
G2U U43G | 0.0816
G3A U67C | 0.819
G3A U67G | 0.818
G3A A15C | 0.308

Variant | self-cleavage
G3A A15G | 0.635
G3A A15U | 0.337
G2U U53G | 0.0896
G2U U53C | 0.0669
G2U U53A | 0.0959
G3A C35U | 0.215
G3A C35G | 0.0971
G3A G14C | 0.159
G2U U61C | 0.0727
G3A G31C | 0.122
G3A G31A | 0.224
G3A A40G | 0.455
G3A G37A | 0.143
G3A G37U | 0.0837
G3A C32A | 0.191
G3A C32U | 0.302
G3A C32G | 0.176
G3A C22A | 0.0741
G3A C22G | 0.0453
G3A C57U | 0.0942
G3A C57G | 0.175
G3A C57A | 0.11
G3A C24A | 0.153
G3A C24U | 0.188

Variant | self-cleavage
G3A C24G | 0.0795
G3A U21G | 0.129
G3A U21C | 0.371
G3A U21A | 0.455
G3A A8U | 0.697
G3C A15C | 0.0371
G3C A15G | 0.113
G3A C34A | 0.516
G3A C34G | 0.256
G2U U64A | 0.0856
G3A C9A | 0.895
G3A C9G | 0.858
G3C A10G | 0.215
G3C A10C | 0.175
G3C | 0.147
G3A | 0.693
G2U U44G | 0.0788
G2U U44A | 0.0745
G2U U44C | 0.067
G3A U55C | 0.187
G3A U55G | 0.291
G3A G17A | 0.0767
G3A G17C | 0.0537
G3A G17U | 0.0783

Variant | self-cleavage
G3A A60U | 0.123
G3A A51C | 0.413
G3A A51U | 0.651
G3A U61A | 0.269
G3A U61C | 0.246
G3A G48A | 0.69
G3A G48U | 0.722
G3A C63G | 0.317
G3A C63A | 0.331
G3C A16U | 0.0415
G3C A16C | 0.0367
G3C A16G | 0.162
G3A C33G | 0.153
G3A C33U | 0.231
G3A G4A | 0.204
G3A G4U | 0.0692
G3A G4C | 0.165
G3A A52G | 0.563
G3A A52U | 0.556
G3A U49A | 0.627
G3A U49G | 0.392
G3A G41U | 0.277
G3A G41A | 0.222
G3A C12A | 0.324

Variant | self-cleavage
G3A C12U | 0.723
G3A C12G | 0.326
G3A G56U | 0.467
G3A G56A | 0.26
G3A G58U | 0.701
G3C A40U | 0.016
G3C A40C | 0.0512
G3C A40G | 0
G3A C66G | 0.597
G3A C66A | 0.442
G3A C66U | 0.724
G3A U69G | 0.793
G3A U69A | 0.847
G3A G65U | 0.285
G3A G65A | 0.527
G3A G5A | 0.101
G3A G5U | 0.0857
G3A A10U | 0.889
G3A A10C | 0.876
G3A A10G | 0.679
G3A A59G | 0.362
G3A A59U | 0.198
G3A U38G | 0.113
